The assay concerns the target 2019-nCoV N protein (SARS-CoV-2, UniProt P0DTC9). In words: BLI. Background: Biolayer interferometry detects binding as a change in optical thickness at a sensor tip.

B1: WT anti-N antibody (antibody, V domains shown)
VH: QIQLVQSGPELKKPGETVKISCKASGFTFTDYAMNWVKQAPGKGLKWMGWLNTYSGEPTYAEDFKGRFAFSLETSASTAYLQINNLKNEDTATYFCARTAILRSYFDYWGQGTTLTVSS
VL: DIVMTQSHKFMSTSVGDRVSITCKASEDLSTALAWCQQKPGQSPKLLIYWGSTRHSGVPDRFTGIRSGTDYTLTISSVQAEDLALYYCQQHWSTPLTFGAGTKLELKR
For B1, binding was put at a Kd of 7.25 nM.

What is called Kd is the concentration at which binding is half-saturated.

Source of the values: patent US20260327291 (published 2026).
